Assay results: US20030191048A1

Target: c-Kit (CD 117) receptor tyrosine kinase on DMVEC (human) (UniProt P10721)
Assay: cell-based or functional assay

c-Kit (CD 117) receptor tyrosine kinase on DMVEC (human), sequence (P10721 26-976): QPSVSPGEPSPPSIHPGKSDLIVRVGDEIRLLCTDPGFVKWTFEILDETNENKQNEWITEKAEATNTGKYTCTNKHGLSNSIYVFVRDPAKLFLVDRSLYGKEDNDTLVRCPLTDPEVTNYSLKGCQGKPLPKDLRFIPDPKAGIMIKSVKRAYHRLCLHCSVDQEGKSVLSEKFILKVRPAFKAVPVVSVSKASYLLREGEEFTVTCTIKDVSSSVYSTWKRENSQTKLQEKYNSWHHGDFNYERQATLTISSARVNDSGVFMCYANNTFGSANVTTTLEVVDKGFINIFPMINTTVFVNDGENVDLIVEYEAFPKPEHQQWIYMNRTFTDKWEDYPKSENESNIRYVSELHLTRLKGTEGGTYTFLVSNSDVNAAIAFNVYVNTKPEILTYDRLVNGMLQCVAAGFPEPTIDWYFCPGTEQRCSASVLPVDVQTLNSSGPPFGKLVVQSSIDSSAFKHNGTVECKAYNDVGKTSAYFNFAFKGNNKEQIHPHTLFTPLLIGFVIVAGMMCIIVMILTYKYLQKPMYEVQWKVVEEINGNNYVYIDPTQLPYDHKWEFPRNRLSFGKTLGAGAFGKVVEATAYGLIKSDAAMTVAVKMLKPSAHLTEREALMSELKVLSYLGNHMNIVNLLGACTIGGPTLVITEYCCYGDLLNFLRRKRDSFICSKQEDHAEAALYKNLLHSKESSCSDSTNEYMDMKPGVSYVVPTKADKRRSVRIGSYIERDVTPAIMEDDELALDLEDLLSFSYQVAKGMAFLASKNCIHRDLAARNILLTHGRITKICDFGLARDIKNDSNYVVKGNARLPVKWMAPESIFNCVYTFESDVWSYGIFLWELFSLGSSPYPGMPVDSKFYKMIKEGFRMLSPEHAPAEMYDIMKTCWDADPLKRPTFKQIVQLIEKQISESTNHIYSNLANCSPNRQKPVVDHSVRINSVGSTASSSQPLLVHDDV

SCF dose giving maximal proliferation (XTT-based assay), mock- and KSHV-infected DMVEC: 50 to 100 ng/mL | proliferation (XTT-based assay), increase over basal proliferation, KSHV-infected DMVEC: < 85% | proliferation (XTT-based assay), increase over basal proliferation, mock-infected DMVEC: < 40%
Substance: recombinant stem cell factor (SCF) (from UniProt P21583 26-189) (ligand)
